Reference: patent US20050250934A1

Target: human IgE myeloma protein (American Biosystems, Inc. cat. no. A113) (human)
Test: ELISA negative control run with each assay (human IgE ELISA and peptide ELISAs)

Sequence of human IgE myeloma protein (American Biosystems, Inc. cat. no. A113) (human) (heavy, as listed by the source): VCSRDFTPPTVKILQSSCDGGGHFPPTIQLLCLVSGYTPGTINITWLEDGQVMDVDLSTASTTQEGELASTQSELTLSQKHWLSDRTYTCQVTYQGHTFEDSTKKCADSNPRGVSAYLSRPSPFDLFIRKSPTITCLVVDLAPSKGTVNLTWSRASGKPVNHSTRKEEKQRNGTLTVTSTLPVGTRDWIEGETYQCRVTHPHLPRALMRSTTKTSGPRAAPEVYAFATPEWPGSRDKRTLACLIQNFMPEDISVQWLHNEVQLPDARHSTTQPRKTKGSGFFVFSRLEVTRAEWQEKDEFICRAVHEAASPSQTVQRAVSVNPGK

- A492: < 0.15 A492
Substance: diluted normal guinea pig control samples (antibody)
